No end group written: not given here. *: point of attachment. C16 diacid = O=C(O)CCCCCCCCCCCCCCC(=O)*
T1: human GIP receptor (human, UniProt P48546 22-466)
T1 sequence (looked up): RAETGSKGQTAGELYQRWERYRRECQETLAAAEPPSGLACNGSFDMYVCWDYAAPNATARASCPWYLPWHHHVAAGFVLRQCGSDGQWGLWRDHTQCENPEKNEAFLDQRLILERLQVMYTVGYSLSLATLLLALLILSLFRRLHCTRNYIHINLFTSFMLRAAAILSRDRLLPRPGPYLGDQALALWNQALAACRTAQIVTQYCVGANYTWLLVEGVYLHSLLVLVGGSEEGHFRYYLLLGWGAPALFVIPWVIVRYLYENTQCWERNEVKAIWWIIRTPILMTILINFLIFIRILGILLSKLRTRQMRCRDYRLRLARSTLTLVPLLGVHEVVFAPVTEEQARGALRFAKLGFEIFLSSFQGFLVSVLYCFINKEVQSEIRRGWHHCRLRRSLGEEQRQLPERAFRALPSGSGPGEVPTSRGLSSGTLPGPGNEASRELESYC

B1: AT742 (peptide)
peptide: EGTFISDYSIAMDKK(C16 diacid)HQQDFVEWLLAQKPSSGAPPPS-OH
modifications: N-terminus assumed
SMILES: CC[C@H](C)[C@H](NC(=O)[C@H](CO)NC(=O)[C@H](Cc1ccc(O)cc1)NC(=O)[C@H](CC(=O)O)NC(=O)[C@H](CO)NC(=O)[C@@H](NC(=O)[C@H](Cc1ccccc1)NC(=O)[C@@H](NC(=O)CNC(=O)[C@@H](N)CCC(=O)O)[C@@H](C)O)[C@@H](C)CC)C(=O)N[C@@H](C)C(=O)N[C@@H](CCSC)C(=O)N[C@@H](CC(=O)O)C(=O)N[C@@H](CCCCN)C(=O)N[C@@H](CCCCNC(=O)CCCCCCCCCCCCCCC(=O)O)C(=O)N[C@@H](Cc1c[nH]cn1)C(=O)N[C@@H](CCC(N)=O)C(=O)N[C@@H](CCC(N)=O)C(=O)N[C@@H](CC(=O)O)C(=O)N[C@@H](Cc1ccccc1)C(=O)N[C@H](C(=O)N[C@@H](CCC(=O)O)C(=O)N[C@@H](Cc1c[nH]c2ccccc12)C(=O)N[C@@H](CC(C)C)C(=O)N[C@@H](CC(C)C)C(=O)N[C@@H](C)C(=O)N[C@@H](CCC(N)=O)C(=O)N[C@@H](CCCCN)C(=O)N1CCC[C@H]1C(=O)N[C@@H](CO)C(=O)N[C@@H](CO)C(=O)NCC(=O)N[C@@H](C)C(=O)N1CCC[C@H]1C(=O)N1CCC[C@H]1C(=O)N1CCC[C@H]1C(=O)N[C@@H](CO)C(=O)O)C(C)C
B2: AT744 (peptide)
peptide: EGTFISDYSIAMDKIHQQDFVEWLLAQKPSSGAPPPSK(C16 diacid)-OH
modifications: N-terminus assumed
SMILES: CC[C@H](C)[C@H](NC(=O)[C@H](CO)NC(=O)[C@H](Cc1ccc(O)cc1)NC(=O)[C@H](CC(=O)O)NC(=O)[C@H](CO)NC(=O)[C@@H](NC(=O)[C@H](Cc1ccccc1)NC(=O)[C@@H](NC(=O)CNC(=O)[C@@H](N)CCC(=O)O)[C@@H](C)O)[C@@H](C)CC)C(=O)N[C@@H](C)C(=O)N[C@@H](CCSC)C(=O)N[C@@H](CC(=O)O)C(=O)N[C@@H](CCCCN)C(=O)N[C@H](C(=O)N[C@@H](Cc1c[nH]cn1)C(=O)N[C@@H](CCC(N)=O)C(=O)N[C@@H](CCC(N)=O)C(=O)N[C@@H](CC(=O)O)C(=O)N[C@@H](Cc1ccccc1)C(=O)N[C@H](C(=O)N[C@@H](CCC(=O)O)C(=O)N[C@@H](Cc1c[nH]c2ccccc12)C(=O)N[C@@H](CC(C)C)C(=O)N[C@@H](CC(C)C)C(=O)N[C@@H](C)C(=O)N[C@@H](CCC(N)=O)C(=O)N[C@@H](CCCCN)C(=O)N1CCC[C@H]1C(=O)N[C@@H](CO)C(=O)N[C@@H](CO)C(=O)NCC(=O)N[C@@H](C)C(=O)N1CCC[C@H]1C(=O)N1CCC[C@H]1C(=O)N1CCC[C@H]1C(=O)N[C@@H](CO)C(=O)N[C@@H](CCCCNC(=O)CCCCCCCCCCCCCCC(=O)O)C(=O)O)C(C)C)[C@@H](C)CC
B3: AT747 (peptide)
peptide: EGTFISDYSIAMDKIK(C16 diacid)QQDFVEWLLAEKPSSGAPPPS-OH
modifications: N-terminus assumed
SMILES: CC[C@H](C)[C@H](NC(=O)[C@H](CO)NC(=O)[C@H](Cc1ccc(O)cc1)NC(=O)[C@H](CC(=O)O)NC(=O)[C@H](CO)NC(=O)[C@@H](NC(=O)[C@H](Cc1ccccc1)NC(=O)[C@@H](NC(=O)CNC(=O)[C@@H](N)CCC(=O)O)[C@@H](C)O)[C@@H](C)CC)C(=O)N[C@@H](C)C(=O)N[C@@H](CCSC)C(=O)N[C@@H](CC(=O)O)C(=O)N[C@@H](CCCCN)C(=O)N[C@H](C(=O)N[C@@H](CCCCNC(=O)CCCCCCCCCCCCCCC(=O)O)C(=O)N[C@@H](CCC(N)=O)C(=O)N[C@@H](CCC(N)=O)C(=O)N[C@@H](CC(=O)O)C(=O)N[C@@H](Cc1ccccc1)C(=O)N[C@H](C(=O)N[C@@H](CCC(=O)O)C(=O)N[C@@H](Cc1c[nH]c2ccccc12)C(=O)N[C@@H](CC(C)C)C(=O)N[C@@H](CC(C)C)C(=O)N[C@@H](C)C(=O)N[C@@H](CCC(=O)O)C(=O)N[C@@H](CCCCN)C(=O)N1CCC[C@H]1C(=O)N[C@@H](CO)C(=O)N[C@@H](CO)C(=O)NCC(=O)N[C@@H](C)C(=O)N1CCC[C@H]1C(=O)N1CCC[C@H]1C(=O)N1CCC[C@H]1C(=O)N[C@@H](CO)C(=O)O)C(C)C)[C@@H](C)CC
B4: AT746 (peptide)
peptide: EGTFISDYAIAMDKIK(C16 diacid)QQDFVEWLLAQKPSSGAPPPS-OH
modifications: N-terminus assumed
SMILES: CC[C@H](C)[C@H](NC(=O)[C@H](C)NC(=O)[C@H](Cc1ccc(O)cc1)NC(=O)[C@H](CC(=O)O)NC(=O)[C@H](CO)NC(=O)[C@@H](NC(=O)[C@H](Cc1ccccc1)NC(=O)[C@@H](NC(=O)CNC(=O)[C@@H](N)CCC(=O)O)[C@@H](C)O)[C@@H](C)CC)C(=O)N[C@@H](C)C(=O)N[C@@H](CCSC)C(=O)N[C@@H](CC(=O)O)C(=O)N[C@@H](CCCCN)C(=O)N[C@H](C(=O)N[C@@H](CCCCNC(=O)CCCCCCCCCCCCCCC(=O)O)C(=O)N[C@@H](CCC(N)=O)C(=O)N[C@@H](CCC(N)=O)C(=O)N[C@@H](CC(=O)O)C(=O)N[C@@H](Cc1ccccc1)C(=O)N[C@H](C(=O)N[C@@H](CCC(=O)O)C(=O)N[C@@H](Cc1c[nH]c2ccccc12)C(=O)N[C@@H](CC(C)C)C(=O)N[C@@H](CC(C)C)C(=O)N[C@@H](C)C(=O)N[C@@H](CCC(N)=O)C(=O)N[C@@H](CCCCN)C(=O)N1CCC[C@H]1C(=O)N[C@@H](CO)C(=O)N[C@@H](CO)C(=O)NCC(=O)N[C@@H](C)C(=O)N1CCC[C@H]1C(=O)N1CCC[C@H]1C(=O)N1CCC[C@H]1C(=O)N[C@@H](CO)C(=O)O)C(C)C)[C@@H](C)CC
B5: AT745 (peptide)
peptide: EGTFISDYSIAMDKIK(C16 diacid)QQAFVEWLLAQKPSSGAPPPS-OH
modifications: N-terminus assumed
SMILES: CC[C@H](C)[C@H](NC(=O)[C@H](CO)NC(=O)[C@H](Cc1ccc(O)cc1)NC(=O)[C@H](CC(=O)O)NC(=O)[C@H](CO)NC(=O)[C@@H](NC(=O)[C@H](Cc1ccccc1)NC(=O)[C@@H](NC(=O)CNC(=O)[C@@H](N)CCC(=O)O)[C@@H](C)O)[C@@H](C)CC)C(=O)N[C@@H](C)C(=O)N[C@@H](CCSC)C(=O)N[C@@H](CC(=O)O)C(=O)N[C@@H](CCCCN)C(=O)N[C@H](C(=O)N[C@@H](CCCCNC(=O)CCCCCCCCCCCCCCC(=O)O)C(=O)N[C@@H](CCC(N)=O)C(=O)N[C@@H](CCC(N)=O)C(=O)N[C@@H](C)C(=O)N[C@@H](Cc1ccccc1)C(=O)N[C@H](C(=O)N[C@@H](CCC(=O)O)C(=O)N[C@@H](Cc1c[nH]c2ccccc12)C(=O)N[C@@H](CC(C)C)C(=O)N[C@@H](CC(C)C)C(=O)N[C@@H](C)C(=O)N[C@@H](CCC(N)=O)C(=O)N[C@@H](CCCCN)C(=O)N1CCC[C@H]1C(=O)N[C@@H](CO)C(=O)N[C@@H](CO)C(=O)NCC(=O)N[C@@H](C)C(=O)N1CCC[C@H]1C(=O)N1CCC[C@H]1C(=O)N1CCC[C@H]1C(=O)N[C@@H](CO)C(=O)O)C(C)C)[C@@H](C)CC
B6: AT748 (peptide)
peptide: EGTFISDYSIAMDAIK(C16 diacid)QQDFVEWLLAQKPSSGAPPPS-OH
modifications: N-terminus assumed
SMILES: CC[C@H](C)[C@H](NC(=O)[C@H](C)NC(=O)[C@H](CC(=O)O)NC(=O)[C@H](CCSC)NC(=O)[C@H](C)NC(=O)[C@@H](NC(=O)[C@H](CO)NC(=O)[C@H](Cc1ccc(O)cc1)NC(=O)[C@H](CC(=O)O)NC(=O)[C@H](CO)NC(=O)[C@@H](NC(=O)[C@H](Cc1ccccc1)NC(=O)[C@@H](NC(=O)CNC(=O)[C@@H](N)CCC(=O)O)[C@@H](C)O)[C@@H](C)CC)[C@@H](C)CC)C(=O)N[C@@H](CCCCNC(=O)CCCCCCCCCCCCCCC(=O)O)C(=O)N[C@@H](CCC(N)=O)C(=O)N[C@@H](CCC(N)=O)C(=O)N[C@@H](CC(=O)O)C(=O)N[C@@H](Cc1ccccc1)C(=O)N[C@H](C(=O)N[C@@H](CCC(=O)O)C(=O)N[C@@H](Cc1c[nH]c2ccccc12)C(=O)N[C@@H](CC(C)C)C(=O)N[C@@H](CC(C)C)C(=O)N[C@@H](C)C(=O)N[C@@H](CCC(N)=O)C(=O)N[C@@H](CCCCN)C(=O)N1CCC[C@H]1C(=O)N[C@@H](CO)C(=O)N[C@@H](CO)C(=O)NCC(=O)N[C@@H](C)C(=O)N1CCC[C@H]1C(=O)N1CCC[C@H]1C(=O)N1CCC[C@H]1C(=O)N[C@@H](CO)C(=O)O)C(C)C
B7: AT741 (peptide)
peptide: EGTFISDYSIAMDK(C16 diacid)IHQQDFVEWLLAQKPSSGAPPPS-OH
modifications: N-terminus assumed
SMILES: CC[C@H](C)[C@H](NC(=O)[C@H](CO)NC(=O)[C@H](Cc1ccc(O)cc1)NC(=O)[C@H](CC(=O)O)NC(=O)[C@H](CO)NC(=O)[C@@H](NC(=O)[C@H](Cc1ccccc1)NC(=O)[C@@H](NC(=O)CNC(=O)[C@@H](N)CCC(=O)O)[C@@H](C)O)[C@@H](C)CC)C(=O)N[C@@H](C)C(=O)N[C@@H](CCSC)C(=O)N[C@@H](CC(=O)O)C(=O)N[C@@H](CCCCNC(=O)CCCCCCCCCCCCCCC(=O)O)C(=O)N[C@H](C(=O)N[C@@H](Cc1c[nH]cn1)C(=O)N[C@@H](CCC(N)=O)C(=O)N[C@@H](CCC(N)=O)C(=O)N[C@@H](CC(=O)O)C(=O)N[C@@H](Cc1ccccc1)C(=O)N[C@H](C(=O)N[C@@H](CCC(=O)O)C(=O)N[C@@H](Cc1c[nH]c2ccccc12)C(=O)N[C@@H](CC(C)C)C(=O)N[C@@H](CC(C)C)C(=O)N[C@@H](C)C(=O)N[C@@H](CCC(N)=O)C(=O)N[C@@H](CCCCN)C(=O)N1CCC[C@H]1C(=O)N[C@@H](CO)C(=O)N[C@@H](CO)C(=O)NCC(=O)N[C@@H](C)C(=O)N1CCC[C@H]1C(=O)N1CCC[C@H]1C(=O)N1CCC[C@H]1C(=O)N[C@@H](CO)C(=O)O)C(C)C)[C@@H](C)CC

What follows are binders tested against T1, human GIP receptor (assay: cell-based or functional assay).

Question: What does the source list for B1?
Answer: nM (Kb, Gaddum assay, cAMP): 32 nM; pKb (Gaddum assay, cAMP): 7.5

Question: For B2, which “nM (Kb, Gaddum assay, cAMP)” value is on record?
Answer: Its value is 4.8 nM.

Question: And the “pKb (Gaddum assay, cAMP)” value?
Answer: The value was 8.3.

Question: How did the “nM (Kb, Gaddum assay, cAMP)” value turn out when B3 was run?
Answer: The value was 14 nM.

Question: And the “pKb (Gaddum assay, cAMP)” value?
Answer: The value was 7.9.

Question: Which “nM (Kb, Gaddum assay, cAMP)” value does the source give for B4 here?
Answer: The value was 0.97 nM.

Question: What about the “pKb (Gaddum assay, cAMP)” value of the same binder?
Answer: The value was 9.

Question: For B5, which “nM (Kb, Gaddum assay, cAMP)” value is on record?
Answer: The value was 0.49 nM.

Question: What about the “pKb (Gaddum assay, cAMP)” value of the same binder?
Answer: Its value is 9.3.

Question: B6 was tested. Which “nM (Kb, Gaddum assay, cAMP)” value did it give?
Answer: Its value is 0.42 nM.

Question: And the “pKb (Gaddum assay, cAMP)” value?
Answer: Its value is 9.4.

Question: Which “nM (Kb, Gaddum assay, cAMP)” value does the source give for B7 here?
Answer: The value was 11 nM.

Question: And the “pKb (Gaddum assay, cAMP)” value?
Answer: Its value is 7.9.

— patent publication US20230416330A1, “Optimized GIP Peptide Analogues” (Antag Therapeutics ApS, priority 2019, published 2023)
